Measurements reported in patent US20040258687A1.

Target: guanylyl cyclase C (GC-C), as expressed on T84 human colon carcinoma cells (human) (UniProt P25092)
Test: cell-based or functional assay

Chain of guanylyl cyclase C (GC-C), as expressed on T84 human colon carcinoma cells (human) (P25092 24-1073): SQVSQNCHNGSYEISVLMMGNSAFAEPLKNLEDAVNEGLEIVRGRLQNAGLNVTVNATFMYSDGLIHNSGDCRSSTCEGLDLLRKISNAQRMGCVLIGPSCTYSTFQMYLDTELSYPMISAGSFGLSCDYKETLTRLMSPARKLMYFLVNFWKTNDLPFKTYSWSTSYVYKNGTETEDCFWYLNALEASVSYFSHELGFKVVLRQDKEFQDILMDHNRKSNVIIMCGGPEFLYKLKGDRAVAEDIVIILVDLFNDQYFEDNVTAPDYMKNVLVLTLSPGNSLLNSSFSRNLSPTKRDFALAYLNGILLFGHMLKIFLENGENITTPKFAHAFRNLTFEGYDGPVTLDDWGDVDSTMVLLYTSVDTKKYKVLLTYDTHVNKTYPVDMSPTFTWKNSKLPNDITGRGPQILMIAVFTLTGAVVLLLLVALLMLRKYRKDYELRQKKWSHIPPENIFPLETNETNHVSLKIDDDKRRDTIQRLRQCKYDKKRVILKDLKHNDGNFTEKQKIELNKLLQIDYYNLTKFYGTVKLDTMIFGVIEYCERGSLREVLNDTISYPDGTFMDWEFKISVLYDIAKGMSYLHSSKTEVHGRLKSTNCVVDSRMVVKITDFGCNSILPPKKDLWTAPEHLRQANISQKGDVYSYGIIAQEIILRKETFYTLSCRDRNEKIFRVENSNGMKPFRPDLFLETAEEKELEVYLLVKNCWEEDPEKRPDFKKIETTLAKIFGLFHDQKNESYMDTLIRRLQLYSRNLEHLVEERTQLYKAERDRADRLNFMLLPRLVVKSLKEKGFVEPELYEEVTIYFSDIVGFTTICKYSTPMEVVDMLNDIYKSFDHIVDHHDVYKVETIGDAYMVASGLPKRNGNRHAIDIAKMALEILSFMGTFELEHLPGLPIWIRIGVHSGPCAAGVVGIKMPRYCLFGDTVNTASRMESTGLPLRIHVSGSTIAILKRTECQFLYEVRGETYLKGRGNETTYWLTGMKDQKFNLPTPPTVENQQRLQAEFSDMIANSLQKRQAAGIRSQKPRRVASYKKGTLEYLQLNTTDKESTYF

## E. coli heat-stable enterotoxin (ST) (peptide)
  EC50 for ST (cytostatic effect, in vitro TJU experiments): 10 nM
